The chains are these.
B1: LINE1-full (parent)
chain: UACGUAGGUGGUUUUCCCCUGAUAGUGCUAAGGGGGCCUGGAAGUUUGGACUGGGCAGAGCUCAACACAGCGUGGCAAAGUGGCUGUGGCUAGACUGCCUCUCUGGAUUCCUCGUCACUCAGCAGGGCAUCUCUGAGAGAAAUGCC

In the data set the parent is B1. As to the kind of experiment: self-cleavage, relative activity (ratio to wild type); higher = more cleavage; in vitro, sequencing; the parent is a self-cleaving ribozyme.
For the variant U1C U119C, the self-cleavage worked out at 0.78.
To A2U U119C belongs 1.26; to A2G U62A, 0.09; to A2G U62C, 0.09.
To U1C A124U belongs 1.07; to U1C A67C, 0.09.
Consider C3A U39A, for which the self-cleavage is 0.96.
Regarding C3U A59U, the self-cleavage was determined as 0.56.
To U1C U85C belongs 0.2; to U1C A24U, 1.2; to A2G A43U, 1.34.
To C3G A78G belongs 0.6.
Turning to U1A A22U, the self-cleavage is 0.41.
Regarding C3A A30G, the self-cleavage turned out to be 1.39.
U1A U39C: the self-cleavage came out at 1.2.
For A2G U29C, the self-cleavage came out at 0.81.
U1A A121G: the self-cleavage came out at 1.73.
With U1C U52C the figure was 1.38; with U1C U52G, 1.33.
Consider A2G U112C, for which the self-cleavage was determined as 0.87.
With A2G G105A the figure was 1.27; with A2G G105U, 1.3.
With U1C U5C the figure was 0.87; with A2G U13A, 0.99; with A2G U13C, 0.64.
With A2C U26C the figure was 1.05; with U1C U96C, 0.12.
With U1C U96A, the self-cleavage was 0.09.
To C3U A140G belongs 0.97; to U1C U13C, 0.62.
To U1C U13A belongs 0.69; to C3A G32A, 0.88.
On to A2G C38A, for which the self-cleavage was 1.05.
For C3G U52A, the self-cleavage turned out to be 0.8.
To U1C C90A belongs 0.
With U1C U104C the figure was 0.68.
To U1C U104A belongs 0.75; to U1C C17U, 0.87; to C3U A69G, 0.53.
On to A2G G55U, for which the self-cleavage is 0.49.
For the variant A2G G55A, the self-cleavage was determined as 0.2.
Regarding A2G C37U, the self-cleavage is 0.89.
For the variant U1A A69G, the self-cleavage stood at 1.2.
Regarding C3U G127A, the self-cleavage turned out to be 0.89.
Take U1A A59U: the self-cleavage came out at 0.91.
To C3U A129G belongs 1.62; to C3U A142G, 0.47.
With A2U U87A the figure was 0.08.
With A2U A138G the figure was 1.06; with U1A U15C, 2.17; with A2G U52A, 1.11.
On to C3U U14A, for which the self-cleavage was found to be 0.24.
Take U1C A92G: the self-cleavage came to 0.14.
With A2G U5A the figure was 0.42; with A2U A121G, 1.53.
With A2U C56A the figure was 0.03.
Regarding A2G C90U, the self-cleavage stood at 0.15.
On to U1A U109C, for which the self-cleavage was 1.05.
To U1A U109A belongs 1.56.
U1C C116A: the self-cleavage was 1.42.
For C3U U13C, the self-cleavage was 0.74.
With A2G A136G the figure was 0.82; with C3U U96C, 0.
As to C3U U23A, the self-cleavage was 0.71.
On to U1C G139U, for which the self-cleavage was 0.74.
To A2U U47A belongs 0.85; to U1C A138U, 0.57; to A2G U9A, 0.56.
With C3A A121U the figure was 0.58; with A2C, 1.24; with A2U, 0.98.
On to A2G, for which the self-cleavage was 0.85.
For the variant U1C A136G, the self-cleavage was found to be 1.08.
With U1A U12C the figure was 1.4.
To A2G A57G belongs 0.68; to U1C A79U, 2.16; to U1G U12C, 0.64.
In the case of A2U U81A, the self-cleavage worked out at 1.38.
As to U1C C63U, the self-cleavage worked out at 0.24.
With U1C C133U the figure was 1.16; with A2U U52C, 0.67.
Take U1C A57U: the self-cleavage came to 0.09.
As to U1C U29G, the self-cleavage was found to be 1.45.
Consider U1A A141G, for which the self-cleavage worked out at 1.43.
With C3U U62G the figure was 0.07; with C3U U62A, 0.2.
To U1C G4A belongs 0.46; to U1A U100C, 1.18.
A2C C56U: the self-cleavage came out at 0.11.
With C3A G72A the figure was 0.38; with U1A A2G, 1.2.
In the case of A2C A65U, the self-cleavage was found to be 0.17.
To U1C G144A belongs 0.72; to A2C A141G, 0.9.
To A2G U73C belongs 0.81; to C3U U26C, 1.01.
As for C3U U26A, the self-cleavage stood at 1.04.
Consider C3U U26G, for which the self-cleavage worked out at 0.87.
On to A2G U14C, for which the self-cleavage is 0.93.
Regarding C3U C118U, the self-cleavage stood at 1.25.
To A2G G27A belongs 0.19; to U1A A129G, 1.47.
To U1A U132A belongs 1.35; to C3G A50U, 0.16; to C3A A67G, 0.56.
Take U1C G89U: the self-cleavage was found to be 0.
As for C3U U39C, the self-cleavage was found to be 0.79.
To U1A A92U belongs 0.32.
To U1C A78C belongs 1.46; to U1C A78G, 1.38; to C3A A138G, 0.92.
With U1C U46A the figure was 0.43; with U1C U46C, 1.11.
In the case of U1C G32U, the self-cleavage worked out at 0.21.
With U1C U9A the figure was 0.75; with U1C G41A, 0.52; with A2C A31G, 1.34.
To C3U G8C belongs 0.53; to U1C A77C, 1.02.
As for U1C C76U, the self-cleavage was determined as 1.56.
Take A2G U96G: the self-cleavage came to 0.12.
Regarding A2G U96C, the self-cleavage came to 0.22.
With U1A A43G the figure was 0.81.
Take U1C U100A: the self-cleavage was 0.69.
As for U1G U96C, the self-cleavage turned out to be 0.87.
With A2G C66U the figure was 0.4; with A2G A6G, 0.68; with A2C U62C, 0.11.
To U1C A59U belongs 0.56; to U1C A59G, 0.1; to U1C A43G, 0.79.
As to U1C A43C, the self-cleavage was 0.37.
For U1C A43U, the self-cleavage turned out to be 0.75.
To U1C A31U belongs 0.61; to U1C U15A, 0.81; to C3U U102A, 1.1.
Regarding C3U U52C, the self-cleavage turned out to be 1.31.
To A2G A140G belongs 0.94.
On to A2U U9A, for which the self-cleavage was found to be 0.86.
As to A2U U9C, the self-cleavage is 0.7.
To U1A A31U belongs 1.11; to C3G A79G, 1.04; to A2C A138G, 2.07.
As to C3G A31U, the self-cleavage came out at 0.98.
As to C3A A64G, the self-cleavage was found to be 0.
For the variant U1A A117G, the self-cleavage is 1.37.
With A2G U47C the figure was 0.84; with U1G U39C, 0.72; with U1C C98U, 0.13.
For C3A A31G, the self-cleavage came to 0.87.
To A2G U143A belongs 0.99; to A2G U143C, 1.2; to U1A U115A, 1.1.
To U1A U115C belongs 1.3; to U1C U26G, 0.72.
In the case of U1C U26C, the self-cleavage stood at 0.64.
To A2U U46C belongs 1.76; to A2G A117U, 1.
To C3U C123U belongs 0.63; to U1C U14G, 0.36; to U1A A65G, 0.07.
As to U1C U39A, the self-cleavage was found to be 0.75.
On to C3U U87C, for which the self-cleavage came out at 0.12.
For the variant C3U U87A, the self-cleavage stood at 0.18.
To A2U A59G belongs 0; to C3A G127A, 0.43.
With U1C G105A the figure was 0.12.

(Values after the RNAGym collection of RNA variant scans (doi:10.7554/elife.90254).)
